How the values were obtained:
[1] = target: EhODC Cys334Ala mutant (Entamoeba histolytica); assay: SEC; gel filtration of the active-site mutants, data not shown
[2] = target: EhODC Gly361Tyr mutant (Entamoeba histolytica); assay: SEC; HiLoad 16/60 Superdex 200, buffer B (50 mM Tris-HCl pH 7.5, 250 mM NaCl, 0.2 mM DTT, 5% glycerol), 500 µl of ~10 mg/ml protein, 0.5 ml/min, calibrated with HMW standards; the wild type was also run after 4 h at 4°C with 2 M or 4 M NaCl or urea (partial dissociation to monomer)
[3] = target: EhODC Cys334Ala mutant (Entamoeba histolytica)
[4] = target: EhODC Lys57Ala mutant (Entamoeba histolytica); assay: SEC; gel filtration of the active-site mutants, data not shown
[5] = target: EhODC Lys157Ala mutant (Entamoeba histolytica); assay: SEC; HiLoad 16/60 Superdex 200, buffer B (50 mM Tris-HCl pH 7.5, 250 mM NaCl, 0.2 mM DTT, 5% glycerol), 500 µl of ~10 mg/ml protein, 0.5 ml/min, calibrated with HMW standards; the wild type was also run after 4 h at 4°C with 2 M or 4 M NaCl or urea (partial dissociation to monomer)
[6] = target: the molecule itself; assay: cross-linking; glutaraldehyde vapour (12.5%, acidified) over a hanging drop of 15 µl protein at 1 mg/ml in 20 mM sodium phosphate pH 7.5, 37°C, 10 min; 12% SDS-PAGE, Coomassie

## EhODC Cys334Ala mutant (enzyme)
[1]
  stoichiometry N: 2

## EhODC Gly361Tyr mutant (enzyme)
[2]
  stoichiometry N: 2

## EhODC Lys57Ala mutant (enzyme)
[3]
  ornithine decarboxylase activity (colorimetric DAO/HRP assay) of the two inactive mutants mixed in equal concentration (1:1), relative to wild type; each mutant alone ~2% (% of wild-type activity): 29
[4]
  stoichiometry N: 2

## EhODC Lys157Ala mutant (enzyme)
[5]
  stoichiometry N: 2

B1: Ornithine decarboxylase from Entamoeba histolytica (EhODC), wild type (enzyme, UniProt Q58P26 1-413, looked up)
chain: MKQTSLEVKEFALNLISQFEPENQPLGFWIFDTEGVEKAVERWKKNMPTVRPCFAVKCNPEPHLVKLLGELGCGFDCASLNEIKEVLDLGFNPEDITYSQTFKPYNQLIEASHLGINHTIVDSIDEVQKIAKYAPKMGIMIRIMENDTSAGHVFGEKFGLHDDEVEIVLKEIKDKGLNLDGVHFHVGSDSHNSEVFTKALTKARNTVTLAEQFGMKPYLIDIGGGFSQVAPFEEFAATIEKTIKELEFPERTRFIAEPGRYMASNAFHLVSSLHGKRVRIQNGKKQIEYTSGDGLHGSFGCCIWFEKQKSCECITQKVNENTKMYESIIYGPSCNGSDKVATQELPEMEPGKDWLLFPNMGAYTISMATNFNGFEERNHVIYTLPLKSTKIIQIPKSIECNSVPSLNGIPHYA
notes: Ornithine decarboxylase, Entamoeba histolytica, NCBI AAX35675, 413 amino acids, predicted 46.43 kDa; full-length gene in pET30a; The His tag is followed by an enterokinase site and was removed before gel filtration; PLP is the cofactor; also called E. histolytica ODC; source: E. coli BL21 (DE3), purified (HisTrap HP, enterokinase cleavage, second HisTrap, Superdex 200); not shown: His6, …
[6]
  stoichiometry N: 2

From PMC3289617, “Biochemical, Mutational and In Silico Structural Evidence for a Functional Dimeric Form of the Ornithine Decarboxylase from Entamoeba histolytica” (PLoS Neglected Tropical Diseases, 2012)
